US20230399394A1 (SUNSHINE GUOJIAN PHARMACEUTICAL SHANGHAI, published 2023)

T1: Pep5 (human, N-terminal biotin)
T1 construct: Synthetic 20-mer of human IL-33
T1 peptide: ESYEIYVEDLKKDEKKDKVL

T2: Pep8 (human, N-terminal biotin)
T2 construct: Synthetic 20-mer of human IL-33
T2 peptide: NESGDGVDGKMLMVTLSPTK

T3: Pep7 (human, N-terminal biotin)
T3 construct: Synthetic 20-mer of human IL-33
T3 peptide: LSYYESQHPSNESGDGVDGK

T4: Pep16 (human, N-terminal biotin)
T4 construct: Synthetic 20-mer of human IL-33
T4 peptide: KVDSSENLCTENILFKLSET

T5: Pep11 (human, N-terminal biotin)
T5 construct: Synthetic 20-mer of human IL-33
T5 peptide: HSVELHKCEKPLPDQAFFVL

T6: Pep9 (human, N-terminal biotin)
T6 construct: Synthetic 20-mer of human IL-33
T6 peptide: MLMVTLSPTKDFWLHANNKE

T7: Pep3 (human, N-terminal biotin)
T7 construct: Synthetic 20-mer of human IL-33
T7 peptide: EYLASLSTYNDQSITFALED

T8: Pep12 (human, N-terminal biotin)
T8 construct: Synthetic 20-mer of human IL-33
T8 peptide: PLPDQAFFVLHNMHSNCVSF

T9: IL-33 mutant protein L51A (human, UniProt O95760 112-270)
T9 construct: Prokaryotic expression
T9 chain: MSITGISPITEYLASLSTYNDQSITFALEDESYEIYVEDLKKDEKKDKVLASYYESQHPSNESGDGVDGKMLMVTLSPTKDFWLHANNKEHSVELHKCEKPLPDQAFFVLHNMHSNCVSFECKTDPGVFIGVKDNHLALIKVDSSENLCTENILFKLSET

T10: Human IL-33-his (human, UniProt O95760 112-270, biotinylated with EZ-Link NHS-Biotin where used as IL-33-his-biotin)
T10 construct: Used plain (SPR, cell assays) and biotinylated (ELISA); also called IL-33-his-biotin
T10 sequence: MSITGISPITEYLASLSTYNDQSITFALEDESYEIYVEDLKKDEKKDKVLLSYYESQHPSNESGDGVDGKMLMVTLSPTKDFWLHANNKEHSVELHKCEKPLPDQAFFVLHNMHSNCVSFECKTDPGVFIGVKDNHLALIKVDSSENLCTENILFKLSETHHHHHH

T11: IL-33 mutant protein L50A (human, UniProt O95760 112-270)
T11 construct: Prokaryotic expression
T11 chain: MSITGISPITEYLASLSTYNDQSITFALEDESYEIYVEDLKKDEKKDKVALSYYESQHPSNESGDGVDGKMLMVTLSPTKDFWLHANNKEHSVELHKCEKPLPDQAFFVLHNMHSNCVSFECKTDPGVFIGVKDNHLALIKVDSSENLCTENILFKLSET

T12: IL-33 mutant protein D68A (human, UniProt O95760 112-270)
T12 construct: Prokaryotic expression
T12 chain: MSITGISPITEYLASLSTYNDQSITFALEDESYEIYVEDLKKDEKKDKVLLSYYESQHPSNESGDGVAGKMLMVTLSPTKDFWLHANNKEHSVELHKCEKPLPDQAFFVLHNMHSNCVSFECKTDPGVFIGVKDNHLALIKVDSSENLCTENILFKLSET


Legend:
Pep5 = biological target: T1, Pep5; assay: ELISA, biotinylated peptide on streptavidin plate, antibody 10 µg/mL, well 1
Procedure: (§1) To determine the binding activity of antibody to each polypeptide fragment, the ELISA plate was pre-coated by biotin-avidin (SA) which was diluted in coating solution (50 mM carbonate coating buffer, pH 9.6) to 2 μg/ml at 4° C. overnight. The plate was washed with PBST for 3 times, and then blocked with 2% BSA prepared in PBS at room temperature for 2 h with 200 μL/well. The plate was washed once with PBST, and 864F3 and 874F7 with final concentrations of 10 μg/mL were added at 100 μL/well, respectively, and the plate was incubated at room temperature for 1 h. The plate was washed with PBST for 3 times, and the goat anti-mouse IgG labeled by HRP was added and placed at 37° C. for 30 min. After washing the plate with PBST for 3 times, the plate was patted on the absorbent paper to remove residual droplets as far as possible. 100 μl TMB developing solution was added to each well, and the plate was placed at room temperature (20±5° C.) for 5 minutes away from light; 50 μl 2M H₂SO₄ terminating solution was added to each well to terminate the substrate reaction. OD values were read at 450 nm on the microplate reader to analyze the binding ability of the antibody to each polypeptide fragment. The experimental results are shown in […]

Pep8 = biological target: T2, Pep8; assay: as above
Procedure: as §1

Pep7 = biological target: T3, Pep7; assay: as above
Procedure: as §1

Pep16 = biological target: T4, Pep16; assay: as above
Procedure: as §1

Pep11 = biological target: T5, Pep11; assay: as above
Procedure: as §1

Pep9 = biological target: T6, Pep9; assay: as above
Procedure: as §1

Pep3 = biological target: T7, Pep3; assay: as above
Procedure: as §1

Pep12 = biological target: T8, Pep12; assay: as above
Procedure: as §1

[1] = biological target: T9, IL-33 mutant protein L51A; assay: ELISA as Example 9; row L51A
Procedure: (§2) SA protein was diluted to 2 μg/mL to coat ELISA plate at 100 μL/well overnight at 4° C. The plate was washed with PBST (PBS containing 0.05% Tween20) for 3 times, and blocked with 2% BSA prepared in PBS at 200 μL/well, at room temperature for 2 h. After the plate was washed twice with PBST, IL-33-his-biotin protein was diluted to 1 μg/mL with 1% BSA prepared in PBST, and was added to ELISA plate at 100 μL/well. The plate was incubated at room temperature for 1 h, and each monoclonal antibody was diluted with 1% BSA prepared in PBST in a 3-fold gradient. The highest concentration of antibody was 10 μg/mL, and the antibody was diluted for 12 gradients. Each diluted monoclonal antibody was added to ELISA wells with 100 μL/well, and the plate was incubated at room temperature for 1 h. Each sample was added to duplicate wells in parallel. The plate was washed with PBST for 3 times, and HRP-anti human IgG Fc secondary antibody prepared with PBST was diluted at an appropriate ratio, and was added to ELISA wells at 100 μL/well. […] Each reaction solution was shaken uniformly and OD450 nm was read on a microplate reader. The data was analyzed and EC₅₀ was calculated.
(§3) Subsequently, according to the experimental method of Example 9, the affinity of the above mutant proteins to 874F7-Hu1 was determined, and IL-33 proteins (WT-1, WT-2, WT-3, and WT-4) without any mutation were set as controls.

Human IL-33-his = biological target: T10, Human IL-33-his; assay: ELISA as Example 9, IL-33-his-biotin on streptavidin plate
[2] = biological target: T11, IL-33 mutant protein L50A; assay: ELISA as Example 9; row L50A against WT-4
Procedure: as §2, §3

[3] = biological target: T12, IL-33 mutant protein D68A; assay: ELISA as Example 9; row D68A against WT-3
Procedure: as §2, §3

Binder | OD450 (Pep5) | OD450 (Pep8) | OD450 (Pep7) | OD450 (Pep16) | OD450 (Pep11) | OD450 (Pep9) | OD450 (Pep3) | OD450 (Pep12) | EC50 [1] | EC50 (Human IL-33-his) | Affinity decline ratio [2] | Affinity decline ratio [3]
874F7 (antibody, V domains shown, Murine hybridoma antibody purified on Protein G; also called murine antibody 874F7) VH: QVQLKESGPGLVAPSHSLSITCNVSGFSLSKYGVHWIRQIPGRGLDWLGVLRAGGSTGYNSALMSRLSISKDSSKSQVFLKMNDLRTDDTAVYFCVRDHYYYSSYGGFVYWGQGTLVTVSA VL: DIQMTQSPASQSASLGESVTITCLASQTIGAWLAWYRQQPGKSPQLLIYAATRLADGVPSRFSGSGSGTEFSFKINNLQAEDFVSYYCQQLDSSPYTFGGGTRLEM | 0.05 OD450 | 0.053 OD450 | 0.055 OD450 | 0.049 OD450 | 0.056 OD450 | 0.065 OD450 | 0.053 OD450 | 0.056 OD450 |  |  |  | 
874F7-Hu1 (antibody, human IgG4 S228P, kappa, also called 874F7-Hul; humanized antibody 874F7-Hu1) heavy: not shown light: DIQMTQSPSSVSASVGDRVTITCLASQTIGAWLAWYQQKPGKSPKLLIYAATRLADGVPSRFSGSGSGTDFTLTISSLQPEDFATYYCQQLDSSPYTFGQGTKVEIKRTVAAPSVFIFPPSDEQLKSGTASVVCLLNNFYPREAKVQWKVDNALQSGNSQESVTEQDSKDSTYSLSSTLTLSKADYEKHKVYACEVTHQGLSSPVTKSFNRGEC |  |  |  |  |  |  |  |  | 0.91 nM | 0.129 nM | 28.5 fold | 1.2 fold
